Data taken from the supplement of paper PMC12764529.
± gives the half width of the 95% confidence interval.

Experiments:
[1] = folding stability dG unfold from chymotrypsin proteolysis; higher = more stable
Procedure, shortened: (§1)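 How resistant each design was to proteolysis was captured as K50, inferred by Bayesian fitting of sequencing counts. Unfolding free energy was then derived relative to a sequence-predicted unfolded-state K50 and a shared folded-state K50, per protease or combined. Digestion used trypsin and chymotrypsin at 11 threefold-diluted concentrations plus a no-protease condition, on mini-proteins under 80 residues without cysteine in a PA-tagged cDNA display construct. Designs were kept only when AlphaFold2 dimer inter-PAE was above 15.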

[2] = folding stability dG unfold (combined trypsin and chymotrypsin); higher = more stable
Procedure, shortened: as §1

[3] = folding stability dG unfold from trypsin proteolysis; higher = more stable
Procedure, shortened: as §1

Row | Sequence | folding stability dG unfold [1] | folding stability dG unfold [2] | folding stability dG unfold [3]
1 | SAGGSAGGSAGSMSTPRSSEKMEKDGGGETLVRTLTYPEPSLTRTVRTPPDGSSSSSTSAPSAGGSAGGSAG [r3_28_JUSTAS] | 0.54 ± 0.11 kcal/mol | 0.235 ± 0.2 kcal/mol | -0.452 ± 0.37 kcal/mol
2 | SAGGSAGGSAGSMTITRTLPGLTVTFTRLPDPNKETITFKLGDKWTTVPASTLSSSVISLSAGGSAGGSAGG [r11_152_JUSTAS] | -0.142 ± 0.34 kcal/mol | -0.14 ± 0.21 kcal/mol | -0.434 ± 0.38 kcal/mol
3 | SAGGSAGGSAGSMVSVEVEESELPPPYRLVTEKVSLPGSETVIEVVRDPATGEVLETKVFASSAGGSAGGSA [r18_507_JUSTAS] | 3.33 ± 0.25 kcal/mol | 3.36 ± 0.59 kcal/mol | 3.77 ± 0.28 kcal/mol
4 | SAGGSAGGSAGSMVTKTTTVEEKIGPGNLKLVKEKITIYDPSTGKPIKEETKITIEPVLLSAGGSAGGSAGG [r17_317_JUSTAS] | 0.452 ± 0.24 kcal/mol | 0.148 ± 0.38 kcal/mol | -0.493 ± 0.16 kcal/mol
5 | SAGGSAGGSAGSPLEEALAEARATGGPVTIRLPDGSEVVITVTEDEGELRVEVRSAAELGSAGGSAGGSAGG [r17_463_JUSTAS] | 0.911 ± 0.042 kcal/mol | 1 ± 0.099 kcal/mol | 0.99 ± 0.027 kcal/mol
6 | SAGGSAGGSAGSTILIKNEDGSLLLVTVSDGSITIERLPPAPPPKTYEKDPETKEWREVTSAGGSAGGSAGG [r11_590_TrROS_Hall] | 0.647 ± 0.063 kcal/mol | 0.878 ± 0.057 kcal/mol | 1.06 ± 0.021 kcal/mol
7 | SAGGSAGGSAGSTITIRINGKTYTIEVDESEEEALERIRELARALLPEGEVEVTVERREPSAGGSAGGSAGG [r11_1028_TrROS_Hall] | 3.374 ± 0.026 kcal/mol | 2.98 ± 0.079 kcal/mol | 2.2 ± 0.047 kcal/mol
8 | SAGGSAGGSAGSTLTVTLTVRDPANPGTTTTVTLTLEVEPAPPPEVVVVKDANGNETLVPSAGGSAGGSAGG [r11_419_TrROS_Hall] | 1.91 ± 0.052 kcal/mol | 1.63 ± 0.061 kcal/mol | 1.29 ± 0.047 kcal/mol
9 | SAGGSAGGSAGSYTVEPVELDDDSTLIRYTYPTDPNAVFPVVTVYPDGPVLTEPVVYSSSSAGGSAGGSAGG [r11_747_JUSTAS] | 0.0377 ± 0.11 kcal/mol | 0.244 ± 0.091 kcal/mol | 0.271 ± 0.037 kcal/mol
10 | SAGGSAGGSAGTATLTDPNGVRIEVFPDGTVRATVYRPDPSTGEWKLAATFTFPLHPDAFSAGGSAGGSAGG [r11_497_TrMRF] | 2 ± 0.067 kcal/mol | 1.94 ± 0.066 kcal/mol | 1.72 ± 0.027 kcal/mol
11 | SAGGSAGGSAGTIENVTVVGSKEFTAPGGVPTLIEYAKLPDGGTYTVTWTGDTTTTTVFPSAGGSAGGSAGG [r17_294_JUSTAS] | 0.675 ± 0.14 kcal/mol | 0.624 ± 0.069 kcal/mol | 0.414 ± 0.021 kcal/mol
12 | SAGGSAGGSAGTIPLDNIKEVELEYDPNSGYYEHRIEFPNGRRLVIRFPPSDNVEIQWLDSAGGSAGGSAGG [r17_182_TrROS] | 1.33 ± 0.062 kcal/mol | 1.31 ± 0.092 kcal/mol | 1.09 ± 0.025 kcal/mol
13 | SAGGSAGGSAGTIRIKTKDGKTIEIELEGLSDEELENPEVLAEIKKALEDAGFEIVEVEPSAGGSAGGSAGG [r11_467_TrROS_Hall] | 2.04 ± 0.054 kcal/mol | 2.09 ± 0.078 kcal/mol | 2.19 ± 0.061 kcal/mol
14 | SAGGSAGGSAGTLRLEVELKLRVRNPATREWQEVTLRLEVEFEPAPPVLVRDANGRLLLLSAGGSAGGSAGG [r11_307_TrROS_Hall] | 3.434 ± 0.021 kcal/mol | 2.98 ± 0.082 kcal/mol | 1.68 ± 0.024 kcal/mol
15 | SAGGSAGGSAGTLTFTFDGVTVEVRLVDGYLVIRVTTEVEVNGKKYKVTLELVIKLPEGLSAGGSAGGSAGG [r11_879_TrROS_Hall] | 5.4 ± 0.28 kcal/mol | 5.49 ± 0.28 kcal/mol | 4.5 ± 0.41 kcal/mol
16 | SAGGSAGGSAGTRTITIFIPVPPGKMTPEDALDFIKPFFPDVKIEVEPVNNYYAIEITVKSAGGSAGGSAGG [r11_7_TrROS] | 0.825 ± 0.045 kcal/mol | 1.04 ± 0.15 kcal/mol | 1.17 ± 0.056 kcal/mol
17 | SAGGSAGGSAGTSIKEAKIKLPSNGKTYKAIVTTHPNGKKYVYIPETGKVYELNNLIIEPSAGGSAGGSAGG [r11_301_TrMRF] | 2.32 ± 0.055 kcal/mol | 2.02 ± 0.059 kcal/mol | 1.4 ± 0.047 kcal/mol
18 | SAGGSAGGSAGVEEIAKILQELGFEVEVEPVPDGMRTIEVQNKNGKKITIRITADGKIEISAGGSAGGSAGG [r17_503_TrROS] | 2.2 ± 0.14 kcal/mol | 2.09 ± 0.11 kcal/mol | 1.9 ± 0.03 kcal/mol
